Molecular target: cynomolgus GITR (cyno-GITR) (cynomolgus)
Assay: ELISA, cyno GITR coated at 1 ug/ml

Substance: reference antibody BMAB (Merck's MK-4166 antibody)
- EC50: 269 pM

— patent publication US20200131263A1
